Data on two molecules can be found in PMC11209835 (Cell metabolism, 2024).

This assay concerns the target T1, Flag-HA-tagged ALOX12, purified (UniProt P18054 1-663).
T1 sequence (looked up): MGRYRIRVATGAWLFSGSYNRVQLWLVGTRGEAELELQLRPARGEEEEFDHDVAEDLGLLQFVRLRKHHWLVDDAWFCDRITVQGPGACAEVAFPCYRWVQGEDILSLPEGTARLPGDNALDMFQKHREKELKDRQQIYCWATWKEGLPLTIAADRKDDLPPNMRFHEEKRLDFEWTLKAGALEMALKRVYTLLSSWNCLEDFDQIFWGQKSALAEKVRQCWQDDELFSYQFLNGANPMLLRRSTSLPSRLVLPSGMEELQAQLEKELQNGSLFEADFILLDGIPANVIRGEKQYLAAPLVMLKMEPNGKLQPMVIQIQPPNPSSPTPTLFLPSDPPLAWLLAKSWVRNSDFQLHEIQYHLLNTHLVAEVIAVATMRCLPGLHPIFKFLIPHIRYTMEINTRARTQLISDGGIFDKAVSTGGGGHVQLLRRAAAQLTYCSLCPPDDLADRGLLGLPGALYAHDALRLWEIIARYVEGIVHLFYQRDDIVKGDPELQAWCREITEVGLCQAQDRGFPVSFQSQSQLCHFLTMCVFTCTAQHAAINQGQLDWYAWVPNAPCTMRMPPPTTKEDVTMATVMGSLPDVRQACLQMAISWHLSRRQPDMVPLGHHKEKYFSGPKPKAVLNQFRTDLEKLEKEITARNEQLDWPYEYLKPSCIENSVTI
In words: pull-down.

B1: GST-PHLDA2-PH (amino acids 7-101) (domain or fragment, human, UniProt Q53GA4 7-101, looked up)
chain: VLREGELEKRSDSLFQLWKKKRGVLTSDRLSLFPASPRARPKELRFHSILKVDCVERTGKYVYFTIVTTDHKEIDFRCAGESCWNAAIALALIDF
As for B1, the binding result is recorded as “binds”.

B2: GST-PHLDA2 Full-length (amino acids 1-152) (natural protein, human, UniProt Q53GA4 1-152, looked up)
chain: MKSPDEVLREGELEKRSDSLFQLWKKKRGVLTSDRLSLFPASPRARPKELRFHSILKVDCVERTGKYVYFTIVTTDHKEIDFRCAGESCWNAAIALALIDFQNRRALQDFRSRQERTAPAAPAEDAVAAAAAAPSEPSEPSRPSPQPKPRTP
Turning to B2, the binding result was “binds”.
